The series concerns the molecule itself. The series can be described thus: crystal structure; Form I crystals, P4(3)2(1)2, 3.4 Å; Tn3 resolvase mixed with site III DNA duplex in a 2:1.25 molar ratio; one dimer-site III DNA complex in the asymmetric unit; step: two subunits in the DNA-bound dimer.

B1: Tn3 resolvase (wild-type, with SHHHHHH added after the natural C-terminus) (enzyme, transposon Tn3, UniProt P0ADI2 1-185, looked up)
chain: MRIFGYARVSTSQQSLDIQIRALKDAGVKANRIFTDKASGSSTDREGLDLLRMKVEEGDVILVKKLDRLGRDTADMIQLIKEFDAQGVAVRFIDDGISTDGDMGQMVVTILSAVAQAERRRILERTNEGRQEAKLKGIKFGRRRTVDRNVVLTLHQKGTGATEIAHQLSIARSTVYKILEDERAS
notes: Tn3 resolvase, wild type, encoded by the Tn3 transposon; GenBank CAA23885.1; The 7 C-terminal residues (SHHHHHH) were disordered in the crystal structure; also called WT Tn3 resolvase; source: E. coli Rosetta DE3 pLysS from plasmid pSA1121; not shown: SHHHHHH (Ser-His6), C-terminal, kept
Take B1: the binding result is “binds”.

The record behind these values is paper PMC9943657, “Structural basis for topological regulation of Tn3 resolvase” (Nucleic Acids Research, 2021).
